Results from patent US20120207760A1.

Key:
Details in all cases: remark: other sources report otherwise
[1] = target: T1, recombinant homotrimeric HA, A/California/4/09 H1N1 (Influenza A virus A/California/4/09 (H1N1)); test: trimeric HA microarray, transfection set 4
[2] = target: T2, recombinant homotrimeric HA, A/Wisconsin/67/05 H3N2 (Influenza A virus A/Wisconsin/67/05 (H3N2)); test: trimeric HA microarray, transfection set 4
[3] = target: T3, recombinant homotrimeric HA, A/Japan/305/57 H2N2 (Influenza A virus A/Japan/305/57 (H2N2)); test: trimeric HA microarray, transfection set 4
[4] = target: T4, recombinant homotrimeric HA, A/swine/Ontario/01911-2/99 H4N6 (Influenza A virus A/swine/Ontario/01911-2/99 (H4N6)); test: trimeric HA microarray, transfection set 4
[5] = target: recombinant homotrimeric HA, A/Vietnam/1203/04 H5N1 (Influenza A virus A/Vietnam/1203/04 (H5N1)); test: trimeric HA microarray, transfection set 4
[6] = target: T5, recombinant homotrimeric HA, A/South Carolina/1/18 H1N1 (Influenza A virus A/South Carolina/1/18 (H1N1)); test: trimeric HA microarray, transfection set 4
[7] = target: recombinant soluble homotrimeric HA of A/Hong Kong/1073/99 - H9N2 (Influenza A virus A/Hong Kong/1073/99 (H9N2)); test: micro-array; captured IgG, V5-tagged trimeric HA
[8] = target: recombinant soluble homotrimeric HA of A/duck/Yangzhou/02/05 (H8N4) (Influenza A virus A/duck/Yangzhou/02/2005 (H8N4)); test: microarray, BCC supernatant IgG, trimeric HA
[9] = target: recombinant soluble homotrimeric HA of A/Egypt/3300-NAMRU3/08 - H5N1 (Influenza A virus A/Egypt/3300-NAMRU3/2008 (H5N1)); test: micro-array; captured IgG, V5-tagged trimeric HA
[10] = target: T2, recombinant homotrimeric HA, …; test: trimeric HA microarray, transfection set 5
[11] = target: T3, recombinant homotrimeric HA, …; test: trimeric HA microarray, transfection set 5
[12] = target: T4, recombinant homotrimeric HA, …; test: trimeric HA microarray, transfection set 5
[13] = target: T5, recombinant homotrimeric HA, A/South …; test: trimeric HA microarray, transfection set 5
[14] = target: T6, recombinant homotrimeric HA, A/Solomon Islands/3/06 H1N1 (Influenza A virus A/Solomon Islands/3/06 (H1N1)); test: trimeric HA microarray, transfection set 5
[15] = target: recombinant homotrimeric HA, A/northern shoveler/California/HKWF115/07 (Influenza A virus A/northern shoveler/California/HKWF115/2007 (H6N1)); test: trimeric HA microarray, transfection set 4
[16] = target: recombinant homotrimeric HA, A/chicken/Vietnam/NCVD-016/08 H5N1 (Influenza A virus A/chicken/Vietnam/NCVD-016/08 (H5N1)); test: trimeric HA microarray, transfection set 4
[17] = target: recombinant homotrimeric HA, A/Hong Kong/1073/99 H9N2 (Influenza A virus A/Hong Kong/1073/99 (H9N2)); test: trimeric HA microarray, transfection set 4
[18] = target: recombinant homotrimeric HA, A/Egypt/3300-NAMRU3/08 H5N1 (Influenza A virus A/Egypt/3300-NAMRU3/08 (H5N1)); test: trimeric HA microarray, transfection set 4
[19] = target: recombinant homotrimeric HA, A/duck/Yangzhou/02/05 H8N4 (Influenza A virus A/duck/Yangzhou/02/2005 (H8N4)); test: trimeric HA microarray, transfection set 4
[20] = target: T7, recombinant homotrimeric HA, A/Indonesia/5/05 H5N1 (Influenza A virus A/Indonesia/5/05 (H5N1)); test: trimeric HA microarray, transfection set 4
[21] = target: T6, recombinant homotrimeric HA, A/Solomon …; test: trimeric HA microarray, transfection set 4
[22] = target: recombinant homotrimeric HA, A/Hong Kong/2108/03 H9N2 (Influenza A virus A/Hong Kong/2108/03 (H9N2)); test: trimeric HA microarray, transfection set 4
[23] = target: recombinant homotrimeric HA, A/common magpie/Hong Kong/5052/07 H5N1 (Influenza A virus A/common magpie/Hong Kong/5052/07 (H5N1)); test: trimeric HA microarray, transfection set 4
[24] = target: recombinant soluble homotrimeric HA of A/northern shoveler/California/HKWF115/07 (Influenza A virus A/northern shoveler/California/HKWF115/2007); test: microarray, BCC supernatant IgG, trimeric HA
[25] = target: recombinant soluble homotrimeric HA of A/Hong Kong/156/97 - H5N1 (Influenza A virus A/Hong Kong/156/97 (H5N1)); test: micro-array; captured IgG, V5-tagged trimeric HA
[26] = target: recombinant soluble homotrimeric HA of A/Anhui/1/05 - H5N1 (Influenza A virus A/Anhui/1/2005 (H5N1)); test: micro-array; captured IgG, V5-tagged trimeric HA
[27] = target: recombinant soluble homotrimeric HA of A/northern shoveler/California/HKWF115/2007 - H6N1 (Influenza A virus A/northern shoveler/California/HKWF115/2007 (H6N1)); test: micro-array; captured IgG, V5-tagged trimeric HA
[28] = target: T1, recombinant homotrimeric HA, …; test: trimeric HA microarray, transfection set 5
[29] = target: T7, recombinant homotrimeric HA, …; test: trimeric HA microarray, transfection set 5

B1: TCN-536 (5095_N01) (antibody, V domains shown)
VH: QVQLQQWGAGLLKPSETLSLTCAVYGGSFSVSGYYWSWIRQPPGRGLEWIGEISHGGSTNYNPSLKSRVTISVDTTKNQFSLRLSSVTAADTAVYYCARGTDPDTEVYCRVGNCAAFDYWGQGSLVTVSS
VL: EIILAQSPGTLSLSPGERATLSCRASQFVSTRSLAWYQQRPGQAPRLLIYGASSRATGIPDRFSGSGSGTDFTLTISRLEPEDFAVYYCQHYGYSPRYAFGQGSKVEIK
**Q.** With B1 as the binder, how does the Trimeric HA Binding RLU [1] read?
**A.** 49 RLU

**Q.** And the Trimeric HA Binding RLU [2]?
**A.** 20600 RLU

**Q.** What about the Trimeric HA Binding RLU [3] of the same binder?
**A.** 260 RLU

**Q.** And the Trimeric HA Binding RLU [4]?
**A.** 168 RLU

**Q.** What about the Trimeric HA Binding RLU [5] of the same binder?
**A.** 182 RLU

**Q.** What about the Trimeric HA Binding RLU [6] of the same binder?
**A.** 39 RLU

**Q.** What about the Trimeric HA Binding: RLU [7] of the same binder?
**A.** 115 RLU

B2: TCN-539 (5056_A08) (antibody, V domains shown)
VH: QVQLVESGGGVVQPGRSLRLSCAASEITFITYAMHWVRQAPGKGLEWVALISDDGSNKFYADSVKGRFTISRDNSKNTLYLQMNSLRAEDTAAYYCAREGVYFDSGTYRGYFDYWGQETLVTVSS
VL: EIVLTQSPATLSLSPGERATLSCRASQSVSSYLAWYQQKPGQAPRLLIYDASNRATGIPARFSGSGSGTDFTLTISSLEPEDFAVYYCQQRSHWPPITFGQGTRLEIK
**Q.** With B2 as the binder, how does the Trimeric HA Binding: RLU [8] read?
**A.** 1490 RLU

**Q.** And the Trimeric HA Binding: RLU [9]?
**A.** 24300 RLU

**Q.** And the Trimeric HA Binding RLU [10]?
**A.** 58800 RLU

**Q.** And the Trimeric HA Binding RLU [11]?
**A.** 2560 RLU

**Q.** What about the Trimeric HA Binding RLU [12] of the same binder?
**A.** 6510 RLU

**Q.** What about the Trimeric HA Binding RLU [13] of the same binder?
**A.** 5330 RLU

**Q.** And the Trimeric HA Binding RLU [14]?
**A.** 871 RLU

B3: TCN-535 (5246_P19) (antibody, V domains shown)
VH: QVQLVQSGSEVKKPGTSVKVSCTASGSVFTNYGISWVRQAPGQGLEWMGGIIPLFGAAKYAQKFQGRVTITADESTKTVYMELSRLTSKDTAIYFCAKAPRVYEYYFDQWGQGTPVTVSS
VL: EIVLTQSPGTLSLSPGERATLSCRASQSVSSSQLAWYQQKPGQAPRLIIYGASTRATGIPDRFSGSGSGTDFTLTIGRLEPEDFAVFFCQQYSTSPPTFGQGTKVDFK
**Q.** How did the Trimeric HA Binding RLU [15] turn out when B3 was run?
**A.** 18100 RLU

**Q.** What about the Trimeric HA Binding RLU [1] of the same binder?
**A.** 25200 RLU

**Q.** What about the Trimeric HA Binding RLU [16] of the same binder?
**A.** 20900 RLU

**Q.** And the Trimeric HA Binding RLU [17]?
**A.** 21200 RLU

**Q.** What about the Trimeric HA Binding RLU [2] of the same binder?
**A.** 4450 RLU

**Q.** What about the Trimeric HA Binding RLU [18] of the same binder?
**A.** 25300 RLU

**Q.** What about the Trimeric HA Binding RLU [3] of the same binder?
**A.** 21500 RLU

**Q.** And the Trimeric HA Binding RLU [19]?
**A.** 428 RLU

**Q.** And the Trimeric HA Binding RLU [20]?
**A.** 18200 RLU

**Q.** And the Trimeric HA Binding RLU [5]?
**A.** 25200 RLU

**Q.** And the Trimeric HA Binding RLU [6]?
**A.** 22400 RLU

**Q.** And the Trimeric HA Binding RLU [21]?
**A.** 836 RLU

**Q.** What about the Trimeric HA Binding RLU [22] of the same binder?
**A.** 18 RLU

**Q.** What about the Trimeric HA Binding RLU [23] of the same binder?
**A.** 477 RLU

B4: TCN-545 (5082_I15) (antibody, V domains shown)
VH: QVQLQQWGAGLLKPSETLSLSCAVFGGSFSDYYWTWIRQPPGKGLEWIGEIKHSGRTNYNPSLESRVTISVDTSKNQFSLKLSSVTAADTAIYYCARGTDPDTEGYCRSGSCSAFDFWGQGTLVTVSS
VL: EIVLTQSPGTLSLSPGERATLSCRASHFVNYRSLAWYQQTPGQVPRLLIYGASTRATGIPDRFSGSGSGTDFTLTISRLEPEDFAVYFCQQYGGSPRYTFGQGTRLEIK
**Q.** Which Trimeric HA Binding: RLU [24] does the source give for B4 here?
**A.** 1170 RLU

**Q.** What about the Trimeric HA Binding: RLU [25] of the same binder?
**A.** 1560 RLU

**Q.** And the Trimeric HA Binding: RLU [26]?
**A.** 4880 RLU

**Q.** And the Trimeric HA Binding: RLU [27]?
**A.** 2320 RLU

**Q.** What about the Trimeric HA Binding RLU [28] of the same binder?
**A.** 818 RLU

**Q.** And the Trimeric HA Binding RLU [10]?
**A.** 32000 RLU

**Q.** And the Trimeric HA Binding RLU [11]?
**A.** 1360 RLU

**Q.** What about the Trimeric HA Binding RLU [29] of the same binder?
**A.** 5270 RLU

**Q.** And the Trimeric HA Binding RLU [13]?
**A.** 900 RLU
